Reference: PMC12800137

Molecular target: E4F1 (UniProt Q66K89)
Test: co-IP, immunoblot
Conditions: reference: PA28γ wild type; sites T23

binding against the reference: weaker
Substance: PA28γ (from UniProt P61289) T23A
